Assay [1] addresses CD123 as arrayed by human cells (human, UniProt P26951 19-378). The experiment in a line: cell-based or functional assay.
In assay [2] the target is Cynomolgus CD3ε/δ (cynomolgus monkey) (UniProt Q95LI5). The experiment in a line: kinetic binding analysis; method not given.
A further assay concerns the target Human CD3ε/δ (human) (UniProt P07766). The assay can be described thus: kinetic binding analysis; method not given.

One molecule from patent US20220213203A1 (MacroGenics, published 2022) can be followed below.

Cynomolgus CD3ε/δ (cynomolgus monkey), sequence (Q95LI5 22-117, stated change not applied, chain 1 of 2): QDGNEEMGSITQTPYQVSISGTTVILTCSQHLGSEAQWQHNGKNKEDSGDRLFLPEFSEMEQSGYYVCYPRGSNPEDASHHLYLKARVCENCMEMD
Cynomolgus CD3ε/δ (cynomolgus monkey), sequence (Q95LI8 22-105, stated change not applied, chain 2 of 2, further chain): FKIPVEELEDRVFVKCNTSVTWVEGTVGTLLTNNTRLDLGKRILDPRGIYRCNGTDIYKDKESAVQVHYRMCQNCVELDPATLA
Human CD3ε/δ (human), sequence (P07766 23-126, stated change not applied, chain 1 of 2): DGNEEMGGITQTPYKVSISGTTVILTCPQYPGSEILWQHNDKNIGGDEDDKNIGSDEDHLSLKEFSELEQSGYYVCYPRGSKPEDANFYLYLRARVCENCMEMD
Human CD3ε/δ (human), sequence (P04234 22-105, stated change not applied, chain 2 of 2, further chain): as the sequence (Q95LI8 22-105, stated change not applied, chain 2 of 2, further chain) above, with V5I, K15N, V20I, T32S, N33D, N34I, A64T, N74S, L83V counted along it
CD123 as arrayed by human cells, sequence (P26951 19-378): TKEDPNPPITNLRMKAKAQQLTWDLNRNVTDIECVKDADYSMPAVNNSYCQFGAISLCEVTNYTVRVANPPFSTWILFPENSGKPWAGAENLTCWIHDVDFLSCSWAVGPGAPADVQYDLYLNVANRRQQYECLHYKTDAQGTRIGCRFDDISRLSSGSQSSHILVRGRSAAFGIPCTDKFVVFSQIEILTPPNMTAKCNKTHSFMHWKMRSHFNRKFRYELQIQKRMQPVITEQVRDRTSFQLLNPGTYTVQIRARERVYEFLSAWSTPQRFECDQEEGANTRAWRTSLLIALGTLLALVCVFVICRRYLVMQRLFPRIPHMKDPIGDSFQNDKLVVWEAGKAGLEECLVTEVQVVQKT

B1: DART-A (bispecific antibody)
chain 1: QAVVTQEPSLTVSPGGTVTLTCRSSTGAVTTSNYANWVQQKPGQAPRGLIGGTNKRAPWTPARFSGSLLGGKAALTITGAQAEDEADYYCALWYSNLWVFGGGTKLTVLGGGGSGGGGEVQLVQSGAELKKPGASVKVSCKASGYTFTDYYMKWVRQAPGQGLEWIGDIIPSNGATFYNQKFKGRVTITVDKSTSTAYMELSSLRSEDTAVYYCARSHLLRASWFAYWGQGTLVTVSSGGCGGGEVAALEKEVAALEKEVAALEKEVAALEK
chain 2: DFVMTQSPDSLAVSLGERVTMSCKSSQSLLNSGNQKNYLTWYQQKPGQPPKLLIYWASTRESGVPDRFSGSGSGTDFTLTISSLQAEDVAVYYCQNDYSYPYTFGQGTKLEIKGGGSGGGGEVQLVESGGGLVQPGGSLRLSCAASGFTFSTYAMNWVRQAPGKGLEWVGRIRSKYNNYATYYADSVKDRFTISRDDSKNSLYLQMNSLKTEDTAVYYCVRHGNFGNSYVSWFAYWGQGTLVTVSSGGCGGGKVAALKEKVAALKEKVAALKEKVAALKE
One may read the Kd as the equilibrium constant for the complex coming apart. The term koff denotes a measure of how fast the partners let go of each other. As a reminder, the kon is a measure of how fast the partners come together. Low readings indicate slower complex formation, high ones faster complex formation. On to B1, for which, in assay [1], the “EC50 of redirected killing, Kasumi-3 target cells, E:T = 10:1” value came to 0.01 ng/mL; the “EC50 of redirected killing, Molm13 target cells, E:T = 10:1” value was 0.18 ng/mL; the “EC50 of redirected killing, RS4-11 target cells, E:T = 10:1” value turned out to be 0.5 ng/mL; the “EC50 of redirected killing, TF-1 target cells, E:T = 10:1” value amounted to 0.46 ng/mL. Besides, the “EC50 of redirected killing, THP-1 target cells, E:T = 10:1” value in assay [1] came to 0.24 ng/mL. In assay [2], the Kd is 9.2 nM, the off-rate constant (koff) came out at 0.005 s⁻¹ and the kon was 550000 M⁻¹ s⁻¹. Moreover, in the assay with Human CD3ε/δ (human), the Kd is 9 nM, the koff stood at 0.005 s⁻¹ and the kon was found to be 570000 M⁻¹ s⁻¹.
